Source: patent publication US20050287643A1 (YALE UNIVERSITY, published 2005)

Tests used:
Mena1-112 EVH1 domain [1] = target: T1, Mena1-112 EVH1 domain (UniProt Q03173 1-112); test: fluorescence polarization competition against pGolemi^Flu
T1 construct: range 1-112

Mena1-112 EVH1 domain [2] = target: T1, Mena1-112 EVH1 domain; test: tryptophan fluorescence perturbation
KIX domain of CBP = KIX domain of CBP (Homo sapiens (Human), UniProt Q92793 587-666); test: method not stated (supplemental information)
Chain of KIX domain of CBP (Q92793 587-666 limits assumed, form in doubt): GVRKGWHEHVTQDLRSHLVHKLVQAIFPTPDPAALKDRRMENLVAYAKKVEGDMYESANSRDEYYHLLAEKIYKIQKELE

T1 sequence (Q03173 1-112 limits assumed): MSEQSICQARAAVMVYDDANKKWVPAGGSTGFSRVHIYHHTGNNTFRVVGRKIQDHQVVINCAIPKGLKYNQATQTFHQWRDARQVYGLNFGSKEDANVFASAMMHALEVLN

B1: ActA11 (peptide)
peptide: FEFPPPPTDEE
notes: domain: PPII repeat 2; also called 11 residue peptide comprising PPII repeat 2 of L. monocytogenes ActA
Mena1-112 EVH1 domain [1]
  IC50: 4 µM

## PFPPTPP [PPII7]
Mena1-112 EVH1 domain [2]
  Kd: 480 µM

## PFPPTPPGEEAPVEDLIRFYNDLQQYLNVV (designed binder) [pGolemi]
KIX domain of CBP
  Kd: 15 µM
